{
  "source": "paper PMC8996148",
  "about": "“Crystal structure of the ternary complex of Leishmania major pteridine reductase 1 with the cofactor NADP^+/NADPH and the substrate folic acid” (Acta Crystallographica. Section F, Structural Biology …, 2022)",
  "proteins": {"B1": {"name": "Leishmania major pteridine reductase 1 (enzyme)", "chain": "MTAPTVPVALVTGAAKRLGRSIAEGLHAEGYAVCLHYHRSAAEANALSATLNARRPNSAITVQADLSNVATAPVSGADGSAPVTLFTRCAELVAACYTHWGRCDVLVNNASSFYPTPLLRNDEDGHEPCVGDREAMETATADLFGSNAIAPYFLIKAFAHRVAGTPAKHRGTNYSIINMVDAMTNQPLLGYTIYTMAKGALEGLTRSAALELAPLQIRVNGVGPGLSVLVDDMPPAVWEGHRSKVPLYQRDSSAAEVSDVVIFLCSSKAKYITGTCVKVDGGYSLTRA", "notes": "Pteridine reductase 1, Leishmania major, UniProtKB Q01782; codon-optimized synthetic DNA in pET-15b; also called LmPTR1; PTR1"}},
  "target": "the molecule itself",
  "test": "crystal structure; pre-formed crystals of the native enzyme (sitting drop, 293 K, 12% PEG 4600, 100 mM sodium acetate pH 5.5, 120-160 mM calcium acetate) soaked with 2 mM folate for 15 min; space group P212121, four copies per asymmetric unit; 1.81 Å",
  "data": [
    {"protein": "B1", "values": [
      {"measurement": "stoichiometry N", "value": 4}
    ]}
  ]
}
